Measured values: patent US20250270319A1 (Alector, published 2025)
Read-outs that look alike come from different tables or passages of the source.

Legend:
[1] = target: T1, human CD33 on primary human dendritic cells (human, UniProt P20138 18-364); test: cell-based or functional assay
[2] = target: T2, recombinant human CD33 protein (Sino Biologicals) (human, UniProt P20138 18-259); test: ELISA, plate coated with recombinant CD33
T2 construct: Bought protein; also called recombinant CD33

[3] = target: T2, recombinant human CD33 protein (Sino …); test: BLI (ForteBio), antibody on anti-human Fc sensor, CD33 10 nM
Method: Affinity parameters of the antibody variants for human CD33 were measured by BioLayer Interferometry in a ForteBio assay according to standard techniques (Estep et al. (2013) MAbs 5(2): 270-8) and were compared to those of the parental antibody (antibody 6C7H8) and the parental humanized antibody (antibody 6C71H5). Briefly, the antibodies were captured on anti-human Fc Biosensors (Pall ForteBio). Recombinant human CD33 (10 nM, Sino Biologicals) was then bound to the captured anti-CD33 surface (200 s association time, 1200 s dissociation time). Local fitting was used to extract association and dissociation rate constants (kₐ and kd, respectively) for each antibody. Apparent affinity constants (KD) were calculated from the ratio kd/kₐ.

[4] = target: T1, human CD33 on primary human dendritic …; test: cell-based or functional assay; remark: listed apart in the source
[5] = target: T3, recombinant cynomolgus CD33 protein (NovoProtein) (cynomolgus); test: ELISA, plate coated with recombinant CD33
T3 construct: Bought protein; also called cyno CD33
T3 sequence (chain, as listed by the source limits assumed): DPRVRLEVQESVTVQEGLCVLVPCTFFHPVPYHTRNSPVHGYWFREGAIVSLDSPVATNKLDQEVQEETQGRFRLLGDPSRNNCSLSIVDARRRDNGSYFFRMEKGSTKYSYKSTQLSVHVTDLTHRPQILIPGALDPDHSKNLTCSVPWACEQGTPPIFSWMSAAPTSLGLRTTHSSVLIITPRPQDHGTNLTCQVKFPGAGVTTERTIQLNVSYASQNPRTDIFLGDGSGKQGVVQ

T2 sequence (P20138 18-259 limits assumed): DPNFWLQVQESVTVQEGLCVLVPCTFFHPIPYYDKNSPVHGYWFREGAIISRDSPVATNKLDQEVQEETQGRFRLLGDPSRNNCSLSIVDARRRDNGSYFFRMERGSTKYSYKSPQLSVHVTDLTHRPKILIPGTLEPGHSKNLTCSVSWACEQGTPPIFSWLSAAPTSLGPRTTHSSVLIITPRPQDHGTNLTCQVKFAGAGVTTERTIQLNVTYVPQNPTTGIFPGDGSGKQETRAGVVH
T1 sequence (P20138 18-364): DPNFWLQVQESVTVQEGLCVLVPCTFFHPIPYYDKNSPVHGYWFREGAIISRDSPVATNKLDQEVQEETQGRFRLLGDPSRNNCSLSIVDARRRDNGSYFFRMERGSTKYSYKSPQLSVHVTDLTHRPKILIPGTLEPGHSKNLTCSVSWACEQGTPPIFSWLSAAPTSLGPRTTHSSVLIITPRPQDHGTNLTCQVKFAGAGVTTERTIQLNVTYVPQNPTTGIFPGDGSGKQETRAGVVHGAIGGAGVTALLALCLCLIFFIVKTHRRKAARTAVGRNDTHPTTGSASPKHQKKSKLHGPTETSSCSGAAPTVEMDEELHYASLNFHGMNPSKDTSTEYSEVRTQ

Binder | EC50 [2] [nM] | Fold increase in potency compared to 6C7H5 [4] [fold] | Receptor downregulation, (EC50) (pM) [4] [pM] | other results
anti-CD33 antibody 6C7H21 (antibody, V domains shown, VH/VL only) VH: EVQLVESGGGLVQPGGSLRLSCAGSGFTFSNYQMNWVRQAPGKGLEWVAEIRLKSNNYVTNYAASVKGRFTISRDDSKNSVYLQMNSLKTEDTGVYYCTRAGYYVPFAYWGQGTLVTVSS VL: QLVLTQSPSASASLGASVKLTCTLSSQHSTYTIEWYQQQPEKGPRYLMELKKEGSHSTGDGIPDRFSGSSSGAERYLTISSLQSEDEADYYCGVGDTIKEQFVYVFGGGTKLTVL | 0.16 | – | – | Fold increase in potency compared to 6C7H5 [1]: 1.2 fold; Maximal reduction in CD33 (% remaining) [1]: 28.3 % remaining; Receptor downregulation, (EC50) (pM) [1]: 34.7 pM; Kd [3]: 0.528 nM; koff [3]: 0.000263 s⁻¹; kon [3]: 498000 M⁻¹ s⁻¹
anti-CD33 antibody 6C7H38 (antibody, V domains shown, VH/VL only) VH: EVQLVESGGGLVQPGGSLRLSCAASGFTFSEYAMLWVRQAPGKGLEWVGEIRLKSNNYVTNYAASVKGRFTISRDDSKNSVYLQMNSLKTEDTGVYYCTRAGYYVPFTYWGQGTLVTVSS VL: QPMLTQSPSASASLGASVKLTCTLSSQHSTYTIEWYQQQPGKGPRYLMELKKEGSHSTGDGIPDRFSGSSSGAERYLTISSLQSEDEADYYCGVGLTIKEQFVYVFGGGTKLTVL | 0.21 | 1.6 | 27 | EC50 [5]: 4.87 nM; Relative maximal binding (cyno/human) [5]: 0.36; Relative potency (human/cyno) [5]: 0.04
anti-CD33 antibody 6C7H39 (antibody, V domains shown, VH/VL only) VH: EVQLVESGGGLVQPGGSLRLSCAASGFTFSEYDMLWVRQAPGKGLEWVGEIRLKSNNYVTNYAASVKGRFTISRDDTKNSVYLQMNSLKTEDTGVYYCTRAGYYVPFAYWGQGTLVTVSS VL: QPVLTQSPSASASLGASVKLTCTLSSQHSTYTIEWYQQQPEKGPRYLMELKKEGSHSTGDGIPDRFSGSSSGAERYLTISSLQSEDEADYYCGVGVTIKEQFVYVFGGGTKLTVL | 0.23 | 1.1 | 38.7 | –
anti-CD33 antibody 6C7H40 (antibody, V domains shown, VH/VL only) VH: EVQLVESGGGLVQPGGSLRLSCAASGFTFSEYDMLWVRQAPGKGLEWVGEIRLKSNNYVTNYAASVKGRFTISRDDTKNSVYLQMNSLKTEDTGVYYCTRAGYYVPFAYWGQGTLVTVSS VL: QLMLTQSPSASASLGASVKLTCTLSSQHSTYTIEWYQQQPGKGPRYLMELKKEGSHSTGDGIPDRFSGSSSGAERYLTISSLQSEDEADYYCGVGHTIKEQFVYEFGGGTKLTVL | 0.19 | 1.1 | 37.2 | –
anti-CD33 antibody 6C7H31 (antibody, V domains shown, VH/VL only) VH: EVQLVESGGGLVQPGGSLRLSCAASGSTFSEYDMLWVRQAPGKGLEWVGEIRLKSNNYVTNYAASVKGRFTISRDDSKNSVYLQMNSLKTEDTGVYYCTRAGYYVPFAYWGQGTLVTVSS VL: QPVLTQSPSASASLGASVKLTCTLSSQHSTYTIEWYQQQPEKGPRYLMELKKEGSHSTGDGIPDRFSGSSSGAERYLTISSLQSEDEADYYCGVGVTIKEQFVYVFGGGTKLTVL | 0.21 | 0.6 | 67.7 | –
anti-CD33 antibody 6C7H37 (antibody, V domains shown, VH/VL only) VH: EVQLVESGGGLVQPGGSLRLSCAASGFTFSEYAMLWVRQAPGKGLEWVGEIRLKSNNYVTNYAASVKGRFTISRDDSKNSVYLQMNSLKTEDTGVYYCTRAGYYVPFTYWGQGTLVTVSS VL: QLMLTQSPSASASLGASVKLTCTLSSQHSTYTIEWYQQQPGKGPRYLMELKKEGSHSTGDGIPDRFSGSSSGAERYLTISSLQSEDEADYYCGVGHTIKEQFVYVFGGGTKLTVL | 0.26 | 0.7 | 59.3 | EC50 [5]: 5.62 nM; Relative maximal binding (cyno/human) [5]: 0.45; Relative potency (human/cyno) [5]: 0.05
anti-CD33 antibody 6C7H33 (antibody, V domains shown, VH/VL only) VH: EVQLVESGGGLVQPGGSLRLSCAASGSTFSEYDMLWVRQAPGKGLEWVGEIRLKSNNYVTNYAASVKGRFTISRDDSKNSVYLQMNSLKTEDTGVYYCTRAGYYVPFAYWGQGTLVTVSS VL: QLMLTQSPSASASLGASVKLTCTLSSQHSTYTIEWYQQQPGKGPRYLMELKKEGSHSTGDGIPDRFSGSSSGAERYLTISSLQSEDEADYYCGVGHTIKEQFVYVFGGGTKLTVL | 0.17 | 0.8 | 50 | –
anti-CD33 antibody 6C7H36 (antibody, V domains shown, VH/VL only) VH: EVQLVESGGGLVQPGGSLRLSCAASGFTFSEYAMLWVRQAPGKGLEWVGEIRLKSNNYVTNYAASVKGRFTISRDDSKNSVYLQMNSLKTEDTGVYYCTRAGYYVPFTYWGQGTLVTVSS VL: QLMLTQSPSASASLGASVKLTCTLSSQHSTYTIEWYQQQPGKGPRYLMELKKEGSHSTGDGIPDRFSGSSSGAERYLTISSLQSEDEADYYCGVGHTIKEQFVYEFGGGTKLTVL | 0.13 | 0.9 | 49.1 | EC50 [5]: 4 nM; Relative maximal binding (cyno/human) [5]: 0.34; Relative potency (human/cyno) [5]: 0.03
anti-CD33 antibody 6C7H35 (antibody, V domains shown, VH/VL only) VH: EVQLVESGGGLVQPGGSLRLSCAASGFTFSEYAMLWVRQAPGKGLEWVGEIRLKSNNYVTNYAASVKGRFTISRDDSKNSVYLQMNSLKTEDTGVYYCTRAGYYVPFTYWGQGTLVTVSS VL: QPVLTQSPSASASLGASVKLTCTLSSQHSTYTIEWYQQQPEKGPRYLMELKKEGSHSTGDGIPDRFSGSSSGAERYLTISSLQSEDEADYYCGVGVTIKEQFVYVFGGGTKLTVL | 0.21 | 0.8 | 51 | –
anti-CD33 antibody 6C7H32 (antibody, V domains shown, VH/VL only) VH: EVQLVESGGGLVQPGGSLRLSCAASGSTFSEYDMLWVRQAPGKGLEWVGEIRLKSNNYVTNYAASVKGRFTISRDDSKNSVYLQMNSLKTEDTGVYYCTRAGYYVPFAYWGQGTLVTVSS VL: QLMLTQSPSASASLGASVKLTCTLSSQHSTYTIEWYQQQPGKGPRYLMELKKEGSHSTGDGIPDRFSGSSSGAERYLTISSLQSEDEADYYCGVGHTIKEQFVYEFGGGTKLTVL | 0.2 | 0.9 | 47.2 | –
anti-CD33 antibody 6C7H34 (antibody, V domains shown, VH/VL only) VH: EVQLVESGGGLVQPGGSLRLSCAASGSTFSEYDMLWVRQAPGKGLEWVGEIRLKSNNYVTNYAASVKGRFTISRDDSKNSVYLQMNSLKTEDTGVYYCTRAGYYVPFAYWGQGTLVTVSS VL: QPMLTQSPSASASLGASVKLTCTLSSQHSTYTIEWYQQQPGKGPRYLMELKKEGSHSTGDGIPDRFSGSSSGAERYLTISSLQSEDEADYYCGVGLTIKEQFVYVFGGGTKLTVL | 0.17 | 0.7 | 60.3 | –
anti-CD33 antibody 6C7H41 (antibody, V domains shown, VH/VL only) VH: EVQLVESGGGLVQPGGSLRLSCAASGFTFSEYDMLWVRQAPGKGLEWVGEIRLKSNNYVTNYAASVKGRFTISRDDTKNSVYLQMNSLKTEDTGVYYCTRAGYYVPFAYWGQGTLVTVSS VL: QLMLTQSPSASASLGASVKLTCTLSSQHSTYTIEWYQQQPGKGPRYLMELKKEGSHSTGDGIPDRFSGSSSGAERYLTISSLQSEDEADYYCGVGHTIKEQFVYVFGGGTKLTVL | 0.23 | 1.2 | 34.2 | –
anti-CD33 antibody 6C7H49 (antibody, V domains shown, VH/VL only) VH: EVQLVESGGGLVQPGGSLRLSCAASGFTFSEYDMLWVRQAPGKGLEWVGEIRLKSNNYVTNYAASVKGRFTISRDDSKNSVYLQMNSLKTEDTGVYYCTRAGYYVPFAYWGQGTLVTVSS VL: QPVLTQSPSASASLGASVKLTCTLSSQHSTYTIEWYQQQPEKGPRYLMELKKEGSHSTGDGIPDRFSGSSSGAERYLTISSLQSEDEADYYCGVGVTIKEQFVYVFGGGTKLTVL | 0.3 | 0.6 | 69.7 | –
anti-CD33 6C7 chimeric antibody (antibody, V domains shown, detected with anti-human IgG; also called 6C7 Chimeric Ab) VH: EVKLEESGGGLVQPGGSMKLSCVGSGFTFSNYCMNWVRQSPEKGLEWVAEIRLKSNNYVTNYVESVKGRFTISRDDSKSRVYLQMNNLRGEDTGFYYCTRDGYYVPFAYWGQGTLVTVSA VL: QLVLTQSSSASFSLGASAKLTCTLSSQHSTYTIEWYQQQPLKPPKYVMELKKDGSHSTGDGIPDRFSGSSSGADRYLSISNIQPEDEAIYICGVGDTIKEQFVYVFGGGTKVTVL | – | – | – | EC50 [5]: 2.96 nM; Relative maximal binding (cyno/human) [5]: 0.47; Relative potency (human/cyno) [5]: 0.06
